Source: the PETadex activity labels

Substrate: BHET
Conditions: 120 h

Protein	plate clearing
unnamed (protein) MLLVSANALSYTPAPVANPAPIAAPAPCQDCDFNRGPNPTNSSVERLGPYSVATQRVSSSVSGFGGGTIHYPTNIAGKVGAIAVVPGFVSPESSIRWWGPQLASHGFVVITIATNSIFDQPSSRERQLGRALDYVINQTNSSGTAISGLVDTNRLGAMGWSMGGGGSLRLANGGRLSAVIPLAPWNEGASGFSQLTTPTLVVACENDLIAPVRVHASPFYNVIPNTTDKAFLEVNNGSHSCANGGGVNGGLLSKYGVSWMKRFIDEDTRYQQFLCGPNHSANPAISEYRDTCNY	not clears the plate
unnamed (protein) MKFEPLPGASPAVQPSMRFVLKRAGMATALLLSSFAAQAQVALVQENFSAGLGNFTAVGTVNTSDGSARLQGCYGCTDAVITSNAISTQGFTNLSLSFDRATAGLDTGEAGTAEFSTDGANWTIVESTRTTTTGRVSFALPASAAAQAALRLRFRINASLSSETYVVDNIQLTGTPGDPGDPDDPGANPFAKGPNPTAELLESSTGPFTYSSTVVARSAASGYGGGTIYHPTNVAGPFAAIAISPGYTGTKSTMSWWGQRLASHGFVVITIDTNSTTDQPSSRATQLMASLRQLVTFSNTSSHPIYRKVDPNRLGVMGHSMGGGGTLIAARDNPTLKAAIPLAPWSSVGNTNFSSVQVPTLVVACEADAIAPVAQHASPFYNSISGSTRKAYIEMNNGDHLCVMTGNSYTRIMGKYGVSWMKRFMDNDTRYSPFLCGAPHQADLSNAQVSEYRENCPY	clears the plate (z > 3 vs empty vector)
unnamed (protein) MTTSNTRTLARLALAAAALLLSAAAQAQANPYQRGPDPTAASLEATAGPFAVATTKVASPSGYGGGTVYYPTTTEGPFGLIAVAPGFTETQSAISWWGPRLASHGFVVITIDTKSTLDQPASRAKQLMAALNYVVALSQTSSSPFYGKVDASRQGVMGHSMGGGGTLEAARDNPTLKAAIPLAPWNTTKNFSKVTVPTLIIACENDAIAPVSSHASPFYDSLPSSLDKAYLELKGADHFCTNSSATNKTVIGKYGVAWMKRFVDNDTRYSPFLCGAPHQADLSGSVISRYKDNCPY	not clears the plate
unnamed (protein) MISTRRFPMRRLAIGLVFVFAAVLGACDWRGPTPTEQLLTASTGPFTVSTLAVPTSAGFGGGTIYYPSTTPGPFAVVSLSPGFTESQSAIAGWGPRLASHGFVTIIINTSNPFIDPSQRSTEQRQALTYVVTQGQTSGSPIFGKVDGQRRGVGGHSMGGGASLISAQADPTIRAVMPMAPWNSSASFPGITSPTLILACQNDGIAPVGSHASPMYNSIPASTKKEYISVAGGDHSCANAPTGGGSAVGKFGVAFLKRFLDNDGRYDPWTCGASKPVAGGSLSEVRSTCPF	not clears the plate
unnamed (protein) MKGIRTRVLPVGKKNTGVKMRCAWRRRVSAFTQSAILHNTHSQETPVMSDPRLSVARLAWAGILLMGAASATCQAQTNPFERGPDPTSSLLNASAGPLATASVAVASPTGFGGGTIYYPTAANTYGVIALCPGFTGTQSSVAWLGSRLASHGFVVVTMNTNSSLDFPASRATQLMAALNHVINNSNATVKSRIDPNRRAVGGHSMGGGGSLIAAQNNPSLKGAYPLTPWNTSTNFSGVGVPTMIIGADGDTTAPVGSHARPFYASLPAATLKAYGELNGATHSTPTSTNTPTGRYAVSWMKRFVDTDTRYSPFLCGAEHTSYATATVFDRYQQNCPY	not clears the plate
unnamed (protein) MPSADEPDAGTAPPPEPGSNHWERGPEPTAESASMPGPYQVESLTAELPDRVEYLSQTLWYPTDAEPPFAGFAIVPGFVSPEGSIAEWGPFLASHGIVVLTIGTNTGGDLPDVRALALAAAVEVLKGEHTRSGSPLEGSMDTDRMAVGGWSMGGGGTLLAIAADPSLKAGIGLTPWHIGALPFTEISVPTLMFAGTADVLAGGMSQGFYDAIPASTPKTLFEILGADHFYSNNPLLPNIEVGRYGLSWLKVFLEGDERYRQFLSVEPMGASDFRTTAP	not clears the plate
unnamed (protein) MQRKRYNTITNRARASLLAGVGLAFFSVLAQADVLFQENFDSSLGQFTSTGSVSVTTSGARMAGSFGGTDGAITSSPISTVGFTGITLTLTRTTTGLDSGEAGIAEFSTNGSTYTVIQSLQTASGAVTLNLPATAGGQSSLRLRFRVNASSSTEYFTVDSIRLEGTPGSGGGGGGTNPYQRGPAPTTSSLDASRGPFSVGSRTVSDTQVSGYDGGTLWYPTNTSEGPFAAIAIIPGFLSSEGSIREWGPRLASWGFVVITVETLTYGDLPPSRRDQLIAAMNDVLMWSDQSGHPIYGKVDKTRQALMGWSMGGGGTLLGLQENPTRFKAGIGLAPWNSTETFTSSIRQPVLIFACESDIIAPVASHAYPFYRNMPTTNKKAFAEVNNGDHFCANDPRNNSGRLGRYGVSWMKRFLDDDTRFTQFLCGTHSTWTFSRYLSTCPY	not clears the plate
unnamed (protein) MASRQSKTRLTRRAKLTALAAATLLSFAAQAQTVIFSENFGSGLGQFTTSGTVSTSSGAAVIQGCYNCTDGAIVSKSISTVGYTGLKLSYDRSTTGLDSGEYGVSAYLVSGGAWTAIENITSSSGRVTLTLPAAVENQASVQLRFRVSSSLSTETLTVDNVVLEGTSASGGGGGGAGYEKGPNPTNAALEASAGPFTVATKAVSASSASGYGGGTIYYPTNVTGTLGAVVVIPGYTAYQSSVSWWGSRLASHGFVVMTIDTNSIYDLPPARATQLMAAVNQLKVFNATAGHVIQGKIDTTRMGIMGWSYGGGGTLIAARDNPSLKAAIPFAPKTTTGTDFSGITMPTLIIGCESDSTAPVSSWSIPFYNSIPAAVKKAYLEVNNGDHFCPTTSGPSSVKPILGKYGVSWMKRWLDNDTRYSTFLCGSPHTTDLGNTAVISEYRDNCPY	not clears the plate
unnamed (protein) MKSQFRKKIKKAKLESALKVFGAFMFASAISTPAAFAINPGGNSDGNSDAGCNSNCSLGIDPTSEMLEKEQGPYVIDYIDIPKSVAGFAGGRIHFPKGLDQRLGLVVIGPGFLYTDESSSRWLGPRLASNGFVTVNINFNTVMDQPDMRANQYDKALDYVIKLSKDSSSPLYGLVDENRLGAAGWSMGGGAALKLSNMRPLKAIMPWAPWYIPAGAFSSVQTPSLIIACKGDIIAPEGIHASAFYNVIPDSTPKEYVKFAKGNHWCSNNRSNYKPLIGKLSIAWFKRFMDEDNRYEKFICDGDIKDESGVAEFRDNCGSWK	not clears the plate
unnamed (protein) MRARTRLTALAAGLTLALGAPAATAATADQAQPAASASVEHGPAPTKESIGVDGPYKVASKKAPIDLKRSFYGGTIYYPADAGKGETYGTVVTMPGFLEPGAVMDLVAKRLASHGFVVMRAEALTPFSIPLVRAQAVLSAQKVLHADADLAPIMDTERTALVGHSMGGGGVLHAAAMSEQDAVIPIHPWAQTIFPLVKEPTLTIGGLLDNVAPMVEYTLPIYASIGSETKGLFTDLAGTHWAGLVDNKVIQGRILSFVKLHVDGDTRYEQFVCAPAEKGFTYKSPC	not clears the plate
unnamed (protein) MKSFLKKIYLGTGMLLVSANALSYTPAPTPNPTPITTPVECQDDCDFSRGPNPTSSSIEGVGPYSVATQNVPSSVSGFGGGTIHYPRGISGTVGAIAVVPGFVSPESSIIWWGPRLASHGFVVITIATNSIFDQPASREAQLGRALDYVINQNNSSNSPISGLVDTSRLGAMGWSMGGGGSLRLASGDRLSAVIPLAPWNEGSRGFRQLETPTLVIACERDLIAPVGVHASPFYNAIPSTTDKAFLEVNNGSHSCANGGGINGGLLSKYGVSWMKRFIDNDTRYQQFLCGPNHAANPAISEYRDTCNY	not clears the plate
unnamed (protein) MKTTQFLRTAVCTFTLSFSLTAFSGGGGGSSDNDGNLPTPNSCTSNCGFEIGPNPNLNFVRASQGPLPVSTTTVASSVDGFGGGTIYYPSNISDEVAAIAISPGFTARQSSIAWWGPILASHGFVVITIDTNSRFDQPDSRGRQLDSSLSYLINESNRSNSPISGRVDDSRLAAMGHSMGGGGSLRSAARNRLSAAMPLAPFRVGGNDFDQIRVPTMIMACENDVVAPVGVHARPFYNRIPGSTDKVLLEINNGSHSCANGESSGNRPLLSTYGVSWMKRFLDKDRRYNQFLCGPNHEANSQISDFRDTCNF	not clears the plate
unnamed (protein) MFPYVAVRVTEETNSRRTTLSNKAATRVSFNRQETDVKFKFVKTALVAAAMACSASAFAQYQKGPDPTTSSLERAGSFATRTLNVSSLSASGFGGGRIWYPTASGSYGVVAVSPGFTGTASTMYFWGERLSSHGFVVIVIETNTLYDQPDSRARQLTSALNYVVSQGNSRTSALYGKVDGNRRAVAGHSMGGGGTLIAAADNPSLKAAIPMAPWNLSSLSFSRIRVPTFIFSCQSDAIAPVAQHSNPFYNAIPSTTSKNLVEMRLDDHFCVMNGGGHYETLGKLGIAWVKRFVDQDTRYSKFLCGNEYNSTVRSTEVSSNRNNCPY	not clears the plate
unnamed (protein) MNSNRTVPLRRAAIAVVLALTLVACDWKGPAPTDASLTAASGPFAVSTLAVPSSAGFGGGTIYYPSNVDGPFAAISVSPGFFSTQSAIAAWGPRLASHGFVVITINTTSLLADPTQRSTEQRQALAHVVNQGNTASSPIFGLVDGNRTGVAGHSMGGGASLISAQADPSIDAAMPFAPWNLGTNFAGITSPTLVLACQADGVAAPNSMASPMYNSIPATTKKMYLSVTNGDHSCANAPTGGNNDVGRYGVAFFKRWLDSDTRYDPWMCGASAPTAGGALNEVRSTCPF	not clears the plate
